{"source": "patent US20210138066A1", "about": "“REMOTE-CONTROLLED IMAGE-GUIDED DRUG DELIVERY VIA ULTRASOUND-MODULATED MOLECULAR DIFFUSION” (California Institute of Technology, priority 2019, published 2021)", "experiment": "Payloads added to the reservoir: Stokes' diameter", "assay_type": "physicochemical", "data": [{"substance": "Adalimumab", "values": [{"measurement": "Stokes' Diameter", "value": 10, "unit": "nm"}]}]}
